Where two headings read alike, the source gives them in different places. Ends that are not written are not given here.
B1: PADI4_11 analogue with E2 replaced by glutamine (peptide)
chain: YQSCRYRQVLQL
modifications: as PADI4_11: thioether cyclisation between the N-terminus and the side chain of C4; C-terminal amide
B2: PADI4_11 analogue with E2 replaced by alanine (peptide)
chain: YASCRYRQVLQL
modifications: as PADI4_11: thioether cyclisation between the N-terminus and the side chain of C4; C-terminal amide
B3: PADI4_11 analogue with R5 replaced by lysine (peptide)
chain: YESCKYRQVLQL
modifications: as PADI4_11: thioether cyclisation between the N-terminus and the side chain of C4; C-terminal amide
B4: PADI4_3 variant with R7 replaced by tryptophan (peptide)
chain: YRDHHYWHPKYCG
modifications: as PADI4_3: D-tyrosine at position 1; thioether cyclisation between the N-terminus and the cysteine side chain; C-terminal amide
B5: PADI4_11 analogue with E2 replaced by aspartic acid (peptide)
chain: YDSCRYRQVLQL
modifications: as PADI4_11: thioether cyclisation between the N-terminus and the side chain of C4; C-terminal amide
B6: PADI3_H4R_K10_I (peptide)
peptide: YRDRHYRHPIYCG
modifications: D-tyrosine at position 1; N-terminus joined to the side chain of Cys12 by a thioether bond (cyclic); C-terminal amide
B7: PADI4_3 variant with R7 replaced by alanine (peptide)
chain: YRDHHYAHPKYCG
modifications: as PADI4_3: D-tyrosine at position 1; thioether cyclisation between the N-terminus and the cysteine side chain; C-terminal amide
B8: PADI4_11 analogue with R5 replaced by alanine (peptide)
chain: YESCAYRQVLQL
modifications: as PADI4_11: thioether cyclisation between the N-terminus and the side chain of C4; C-terminal amide
B9: PADI4_11 (peptide)
peptide: YESCRYRQVLQL
modifications: not fully specified; L-tyrosine at position 1; cyclised via a thioether bond between the N-terminus (chloroacetylated) and the side chain of C4; C-terminal amide
B10: PADI4_3 variant with R7 replaced by asparagine (peptide)
chain: YRDHHYNHPKYCG
modifications: as PADI4_3: D-tyrosine at position 1; thioether cyclisation between the N-terminus and the cysteine side chain; C-terminal amide
B11: PADI4_11 analogue with R7 replaced by alanine (peptide)
chain: YESCRYAQVLQL
modifications: as PADI4_11: thioether cyclisation between the N-terminus and the side chain of C4; C-terminal amide
B12: PADI4_11 analogue with R7 replaced by lysine (peptide)
chain: YESCRYKQVLQL
modifications: as PADI4_11: thioether cyclisation between the N-terminus and the side chain of C4; C-terminal amide

Experiments:
[1] = molecular target: T1, N-terminally biotinylated recombinant human PADI4 (bio-His-PADI4) (human, UniProt Q9UM07 1-663, biotin on the N-terminal Avi-Tag (BirA)); experiment: SPR
[2] = molecular target: T1, N-terminally biotinylated recombinant …; experiment: SPR; remark: listed apart in the source

T1 sequence (Q9UM07 whole entry): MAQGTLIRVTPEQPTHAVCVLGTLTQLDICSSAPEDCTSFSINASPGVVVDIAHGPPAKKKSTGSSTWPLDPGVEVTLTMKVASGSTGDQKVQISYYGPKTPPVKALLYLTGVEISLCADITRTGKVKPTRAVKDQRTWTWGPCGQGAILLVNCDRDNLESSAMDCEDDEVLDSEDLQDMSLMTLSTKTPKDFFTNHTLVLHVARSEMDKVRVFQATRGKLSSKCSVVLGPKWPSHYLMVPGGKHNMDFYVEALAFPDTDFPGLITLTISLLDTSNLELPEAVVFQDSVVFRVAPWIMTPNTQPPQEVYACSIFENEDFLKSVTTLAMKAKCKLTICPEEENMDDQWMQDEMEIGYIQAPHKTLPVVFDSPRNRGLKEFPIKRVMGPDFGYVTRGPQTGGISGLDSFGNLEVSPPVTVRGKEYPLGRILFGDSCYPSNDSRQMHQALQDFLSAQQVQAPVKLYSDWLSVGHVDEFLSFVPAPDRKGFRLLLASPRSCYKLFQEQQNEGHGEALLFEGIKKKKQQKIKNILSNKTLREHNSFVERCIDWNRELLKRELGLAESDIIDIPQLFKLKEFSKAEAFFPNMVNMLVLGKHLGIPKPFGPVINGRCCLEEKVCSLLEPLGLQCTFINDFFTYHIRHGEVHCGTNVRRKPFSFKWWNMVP

| Binder | Kd [1] [nM] | Kd [2] [nM] |
| --- | --- | --- |
| B1 | 20000 | – |
| YRDHHYRHPIYCG [PADI4_3_K10I] | – | 4 |
| B2 | 114000 | – |
| B3 | 1400 | – |
| YRDHHHRHPKYCG [PADI4_3_Y6H] | – | 30 |
| B4 | – | 6 |
| YESARYRQVLQL-NH2 [PADI4_11 analogue with C4 replaced by alanine] | 118000 | – |
| B5 | 41000 | – |
| YESCRYRAVLQL [PADI4_11 Q8A] | 500 | – |
| YESCRARQVLQL [PADI4_11 Y6A] | 13000 | – |
| B6 | – | 7 |
| YRDHHYRHPVYCG [PADI4_3_K10V] | – | 5 |
| B7 | – | 8 |
| B8 | 34000 | – |
| B9 | 500 | – |
| B10 | – | 41 |
| YEACRYRQVLQL [PADI4_11 S3A] | 160 | – |
| YESCRYRQALQL [PADI4_11 V9A] | 14000 | – |
| B11 | 4000 | – |
| YESCRYRQVLQA [PADI4_11 L12A] | 5100 | – |
| YESCRY [11B] | > 2000 | – |
| YRDHHYRHPKYCG [PADI4_3_dY1(OMe)Y] | – | 23 |
| AESCRYRQVLQL [PADI4_11 Y1A] | 11100 | – |
| YESCRYRQVLAL [PADI4_11 Q11A] | 310 | – |
| YESCRYRQVAQL [PADI4_11 L10A] | 300 | – |
| B12 | 700 | – |
